Assay results reported in the supplement of paper PMC10567573.

B1: PPP2R2C (parent)
chain: YSSSKGSLRLCDMRAAALCDKHSK
B2: TRAF3IP2 (parent)
chain: PRPPSNPPARGTLKTSNLPEELRK

Variants of: B1
Test: protein stability index of a GFP-peptide fusion (GPS, HEK-293T) (PSI 1-6); higher = more stable
Conditions: c terminus: a fixed tail appended
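Note: lentivirally expressed fusions sorted by FACS into six bins by GFP to DsRed ratio, PSI derived from sequencing read proportions per bin multiplied by bin number.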

Row | Variant | protein stability index
1 | D12Q | 2.76
2 | R9S | 3.81
3 | R9M | 1.9
4 | R9Y | 1.76
5 | L8I | 1.78
6 | L8E | 2.41
7 | C19E | 1.62
8 | C19V | 1.4
9 | C19N | 1.58
10 | M13C | 1.73
11 | M13Y | 3.27
12 | A16I | 1.84
13 | A16L | 1.3
14 | S3L | 2.7
15 | S3Q | 2.45
16 | S2M | 1.72
17 | S2H | 2
18 | G6Q | 2.39
19 | G6D | 2.73
20 | A17F | 2.36
21 | L18E | 1.9
22 | L18R | 1.96
23 | L18Y | 1.8
24 | L18D | 1.48
25 | H22G | 2.31

Row | Variant | protein stability index
26 | H22F | 1.53
27 | D20Y | 1.96
28 | K21R | 1.69
29 | K21Q | 1.82
30 | L10M | 1.92
31 | L10D | 4.23
32 | L10G | 3.53
33 | Y1N | 3.81
34 | Y1M | 3.54
35 | Y1D | 4.63
36 | K24I | 2.06
37 | K24F | 1.36
38 | K24M | 2.11
39 | S23A | 1.79
40 | S23R | 1.78
41 | S23K | 1.82
42 | S23W | 1.35
43 | S7V | 2.24
44 | S7E | 1.56
45 | S7I | 1.34
46 | S7N | 1.65
47 | S4W | 1.63
48 | S4Y | 1.98
49 | S4P | 2.57
50 | S4T | 1.8

Variants of: B2
Test: as above
Conditions: c terminus: a fixed tail appended

Row | Variant | protein stability index
51 | A9C | 4.31
52 | A9N | 4.95
53 | A9M | 4.68
54 | A9R | 4.6
55 | A9K | 4.44
56 | A9T | 5.3
57 | A9G | 4.84
58 | A9S | 4.62
59 | A9Q | 4.7
60 | A9Y | 4.5
61 | A9F | 4.37
62 | A9V | 4.31
63 | A9H | 4.63
64 | A9E | 5.06
65 | A9L | 4.85
66 | A9I | 4.65
67 | A9W | 4.47
68 | A9D | 5
69 | L13H | 4.36
70 | L13E | 5.04
71 | L13F | 4.37
72 | L13C | 3.92
73 | L13G | 4.67
74 | L13Y | 4.25

Row | Variant | protein stability index
75 | L13K | 4.79
76 | L13R | 4.6
77 | L13T | 4.82
78 | L13S | 4.94
79 | L13D | 5.09
80 | L13W | 4.44
81 | L13M | 5.06
82 | L13Q | 4.8
83 | L13N | 5.15
84 | L13V | 5.32
85 | L13A | 4.52
86 | L13I | 4.6
87 | L18V | 5.06
88 | L18M | 4.5
89 | L18N | 4.71
90 | L18H | 4.8
91 | L18Q | 5.08
92 | L18A | 4.92
93 | L18R | 4.56
94 | L18T | 4.96
95 | L18I | 4.38
96 | L18S | 5.62
97 | L18K | 5.26
98 | L18D | 4.67

Row | Variant | protein stability index
99 | L18W | 4.2
100 | L18G | 4.96
101 | L18F | 4.72
102 | L18Y | 5.14
103 | E21R | 4.2
104 | E21Y | 4.23
105 | E21M | 3.06
106 | E21F | 3.73
107 | E21H | 3.94
108 | E21D | 4.71
109 | E21K | 4.26
110 | E21C | 4.19
111 | E21S | 3.97
112 | E21N | 4.6
113 | E21V | 3.74
114 | E21L | 4.26
115 | E21W | 3.69
116 | E21G | 4.36
117 | E21I | 4.29
118 | E21P | 3.62
119 | E21A | 4.6
120 | E21T | 4.46
121 | E21Q | 5.04
122 | P8W | 4.22

Row | Variant | protein stability index
123 | P8R | 4.43
124 | P8V | 5.04
125 | P8S | 4.8
126 | P8Y | 4.69
127 | P8T | 5.02
128 | T15R | 4.52
129 | T15K | 4.82
130 | T15Q | 4.48
131 | T15S | 4.79
132 | T15N | 4.53
133 | T15E | 4.94
134 | T15V | 4.48
135 | T15I | 4.14
136 | T15M | 4.43
137 | T15L | 4.29
138 | T15H | 4.99
139 | T15A | 4.22
140 | T15C | 4.72
141 | T15P | 4.64
142 | T15Y | 4.64
143 | T15F | 4.29
144 | T15D | 5.13
145 | T15W | 3.67
146 | T15G | 4.95

Row | Variant | protein stability index
147 | E20R | 4.48
148 | E20S | 4.52
149 | E20H | 3.96
150 | E20V | 3.41
151 | E20F | 4.06
152 | E20M | 4.14
153 | E20G | 5.51
154 | E20W | 4
155 | E20I | 3.44
156 | E20T | 4.25
157 | E20D | 4.81
158 | E20K | 4.2
159 | E20P | 4.21
160 | E20Y | 3.95
161 | E20N | 4.61
162 | E20Q | 4.67
163 | E20A | 4.41
164 | E20L | 4.1
165 | E20C | 4.44
166 | R23D | 4.9
167 | R23T | 4.77
